Source: IntAct's records for PubMed 14673118

B1: Thioredoxin (Synechocystis sp. (strain PCC 6803 / Kazusa)), P52231 (parent)
chain: MSATPQVSDASFKEDVLDSELPVLVDFWAPWCGPCRMVAPVVDEISQQYEGKVKVVKLNTDENPNTASQYGIRSIPTLMIFKGGQRVDMVVGAVPKTTLASTLEKYL
partner: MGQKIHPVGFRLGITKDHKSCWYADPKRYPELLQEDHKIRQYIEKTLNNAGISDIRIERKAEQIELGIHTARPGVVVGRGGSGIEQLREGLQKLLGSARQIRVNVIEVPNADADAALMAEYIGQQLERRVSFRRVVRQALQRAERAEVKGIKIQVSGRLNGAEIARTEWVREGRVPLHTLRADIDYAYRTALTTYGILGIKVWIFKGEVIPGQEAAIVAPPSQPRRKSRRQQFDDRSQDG
B2: Thioredoxin (Synechocystis sp. (strain PCC 6803 / Kazusa)), P52231 (parent)
chain: B1 chain
partner: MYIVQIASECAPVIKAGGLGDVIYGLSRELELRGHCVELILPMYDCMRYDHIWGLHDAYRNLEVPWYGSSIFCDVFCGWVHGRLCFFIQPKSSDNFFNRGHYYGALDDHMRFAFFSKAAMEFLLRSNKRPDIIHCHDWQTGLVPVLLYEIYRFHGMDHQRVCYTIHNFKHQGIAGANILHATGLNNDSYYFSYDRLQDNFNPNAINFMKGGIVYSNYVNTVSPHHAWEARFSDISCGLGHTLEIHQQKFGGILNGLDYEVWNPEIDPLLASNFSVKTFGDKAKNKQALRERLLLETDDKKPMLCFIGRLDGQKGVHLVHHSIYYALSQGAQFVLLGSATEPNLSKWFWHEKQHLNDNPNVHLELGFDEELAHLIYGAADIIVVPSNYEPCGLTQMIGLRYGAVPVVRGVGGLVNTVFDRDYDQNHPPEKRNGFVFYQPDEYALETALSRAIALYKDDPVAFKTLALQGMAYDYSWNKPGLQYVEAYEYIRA
B3: Thioredoxin (Synechocystis sp. (strain PCC 6803 / Kazusa)), P52231 (parent)
chain: B1 chain
partner: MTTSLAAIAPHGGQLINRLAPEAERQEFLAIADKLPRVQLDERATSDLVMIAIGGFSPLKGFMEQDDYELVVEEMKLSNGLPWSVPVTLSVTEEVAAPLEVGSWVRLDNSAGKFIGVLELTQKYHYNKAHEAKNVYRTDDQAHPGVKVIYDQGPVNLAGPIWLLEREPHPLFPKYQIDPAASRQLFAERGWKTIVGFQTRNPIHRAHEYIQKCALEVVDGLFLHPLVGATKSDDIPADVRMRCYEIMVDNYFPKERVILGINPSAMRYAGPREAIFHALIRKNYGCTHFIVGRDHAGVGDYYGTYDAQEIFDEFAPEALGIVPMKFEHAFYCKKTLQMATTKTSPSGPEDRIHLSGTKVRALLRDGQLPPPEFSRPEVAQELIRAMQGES
B4: Thioredoxin (Synechocystis sp. (strain PCC 6803 / Kazusa)), P52231 (parent)
chain: B1 chain
partner: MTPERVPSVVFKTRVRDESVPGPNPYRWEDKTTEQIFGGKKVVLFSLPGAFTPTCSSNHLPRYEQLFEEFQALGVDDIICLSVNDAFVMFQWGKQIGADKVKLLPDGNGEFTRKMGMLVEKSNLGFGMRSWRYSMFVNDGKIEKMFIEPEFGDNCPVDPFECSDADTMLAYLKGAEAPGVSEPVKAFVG
B5: Thioredoxin (Synechocystis sp. (strain PCC 6803 / Kazusa)), P52231 (parent)
chain: B1 chain
partner: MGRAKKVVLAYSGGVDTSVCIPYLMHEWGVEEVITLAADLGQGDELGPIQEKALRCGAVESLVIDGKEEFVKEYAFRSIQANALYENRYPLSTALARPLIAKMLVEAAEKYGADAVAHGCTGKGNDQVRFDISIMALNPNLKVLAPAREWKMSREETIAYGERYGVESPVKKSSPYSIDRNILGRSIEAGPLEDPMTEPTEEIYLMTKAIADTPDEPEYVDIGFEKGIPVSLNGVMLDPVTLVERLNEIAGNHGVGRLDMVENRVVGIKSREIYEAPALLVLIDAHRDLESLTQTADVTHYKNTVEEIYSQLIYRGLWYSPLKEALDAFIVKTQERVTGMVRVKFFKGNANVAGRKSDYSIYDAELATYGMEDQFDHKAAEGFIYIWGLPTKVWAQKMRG
B6: Thioredoxin (Synechocystis sp. (strain PCC 6803 / Kazusa)), P52231 (parent)
chain: B1 chain
partner: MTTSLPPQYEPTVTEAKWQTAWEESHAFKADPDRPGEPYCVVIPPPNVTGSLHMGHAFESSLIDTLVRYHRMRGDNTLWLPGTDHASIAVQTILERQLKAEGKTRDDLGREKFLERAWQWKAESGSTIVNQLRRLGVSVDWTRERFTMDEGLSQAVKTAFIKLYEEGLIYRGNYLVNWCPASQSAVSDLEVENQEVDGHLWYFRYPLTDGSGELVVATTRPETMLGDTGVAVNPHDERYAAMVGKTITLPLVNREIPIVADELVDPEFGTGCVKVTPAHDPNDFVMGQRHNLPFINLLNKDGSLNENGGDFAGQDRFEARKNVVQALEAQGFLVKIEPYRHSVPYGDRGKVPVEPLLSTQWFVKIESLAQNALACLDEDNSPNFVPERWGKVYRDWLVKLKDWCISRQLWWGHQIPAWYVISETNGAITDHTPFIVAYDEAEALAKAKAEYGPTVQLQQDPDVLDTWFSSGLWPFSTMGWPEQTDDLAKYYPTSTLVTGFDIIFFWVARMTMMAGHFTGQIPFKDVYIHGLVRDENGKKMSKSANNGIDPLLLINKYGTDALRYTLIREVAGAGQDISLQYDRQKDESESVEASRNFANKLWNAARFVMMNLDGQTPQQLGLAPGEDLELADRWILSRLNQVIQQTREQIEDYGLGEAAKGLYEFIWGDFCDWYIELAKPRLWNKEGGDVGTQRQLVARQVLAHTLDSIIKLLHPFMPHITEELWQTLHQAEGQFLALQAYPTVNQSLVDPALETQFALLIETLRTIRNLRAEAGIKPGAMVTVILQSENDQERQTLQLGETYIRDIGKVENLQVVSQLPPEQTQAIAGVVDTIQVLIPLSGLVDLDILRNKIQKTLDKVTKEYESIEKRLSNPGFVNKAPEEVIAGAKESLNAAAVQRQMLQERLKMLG
B7: Thioredoxin (Synechocystis sp. (strain PCC 6803 / Kazusa)), P52231 (parent)
chain: B1 chain
partner: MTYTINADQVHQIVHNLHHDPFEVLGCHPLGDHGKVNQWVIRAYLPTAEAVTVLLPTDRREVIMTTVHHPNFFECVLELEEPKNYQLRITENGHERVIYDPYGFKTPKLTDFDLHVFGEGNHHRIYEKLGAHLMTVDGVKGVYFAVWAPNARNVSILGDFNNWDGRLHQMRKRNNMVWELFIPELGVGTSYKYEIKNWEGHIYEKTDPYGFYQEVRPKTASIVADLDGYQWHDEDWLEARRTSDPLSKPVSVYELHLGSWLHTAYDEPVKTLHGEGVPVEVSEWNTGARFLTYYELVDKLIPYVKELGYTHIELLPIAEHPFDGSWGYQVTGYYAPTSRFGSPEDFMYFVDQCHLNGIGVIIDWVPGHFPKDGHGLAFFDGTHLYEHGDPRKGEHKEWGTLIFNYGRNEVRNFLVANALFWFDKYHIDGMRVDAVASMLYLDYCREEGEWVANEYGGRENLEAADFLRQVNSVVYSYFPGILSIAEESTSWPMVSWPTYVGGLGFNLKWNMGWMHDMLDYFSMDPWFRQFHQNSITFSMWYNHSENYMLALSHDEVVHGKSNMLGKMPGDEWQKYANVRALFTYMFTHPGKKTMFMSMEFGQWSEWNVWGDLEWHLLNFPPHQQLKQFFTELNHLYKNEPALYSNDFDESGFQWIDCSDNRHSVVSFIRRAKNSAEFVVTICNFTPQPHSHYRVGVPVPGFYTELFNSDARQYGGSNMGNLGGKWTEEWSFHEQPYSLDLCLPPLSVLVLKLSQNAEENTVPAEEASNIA
B8: Thioredoxin (Synechocystis sp. (strain PCC 6803 / Kazusa)), P52231 (parent)
chain: B1 chain
partner: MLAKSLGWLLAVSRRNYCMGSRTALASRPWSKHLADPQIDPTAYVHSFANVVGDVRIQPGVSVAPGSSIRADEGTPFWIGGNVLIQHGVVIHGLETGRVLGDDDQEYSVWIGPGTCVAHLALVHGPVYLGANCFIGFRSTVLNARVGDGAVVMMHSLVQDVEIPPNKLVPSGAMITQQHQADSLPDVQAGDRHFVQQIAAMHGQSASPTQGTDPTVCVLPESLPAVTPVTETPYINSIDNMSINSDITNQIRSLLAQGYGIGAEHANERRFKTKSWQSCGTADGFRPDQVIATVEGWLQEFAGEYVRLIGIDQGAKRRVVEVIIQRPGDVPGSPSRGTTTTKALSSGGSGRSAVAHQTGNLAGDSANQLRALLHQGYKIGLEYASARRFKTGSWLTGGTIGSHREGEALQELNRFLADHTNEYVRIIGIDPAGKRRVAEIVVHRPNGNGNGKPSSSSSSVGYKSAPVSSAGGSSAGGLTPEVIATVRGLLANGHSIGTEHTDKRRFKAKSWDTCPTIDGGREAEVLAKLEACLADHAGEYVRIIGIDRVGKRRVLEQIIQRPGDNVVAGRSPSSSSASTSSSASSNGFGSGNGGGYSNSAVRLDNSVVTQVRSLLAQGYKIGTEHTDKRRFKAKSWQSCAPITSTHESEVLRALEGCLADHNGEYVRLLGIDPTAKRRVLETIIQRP
B9: Thioredoxin (Synechocystis sp. (strain PCC 6803 / Kazusa)), P52231 (parent)
chain: B1 chain
partner: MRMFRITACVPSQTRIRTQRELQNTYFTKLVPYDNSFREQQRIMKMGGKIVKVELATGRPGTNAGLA
B10: Thioredoxin (Synechocystis sp. (strain PCC 6803 / Kazusa)), P52231 (parent)
chain: B1 chain
partner: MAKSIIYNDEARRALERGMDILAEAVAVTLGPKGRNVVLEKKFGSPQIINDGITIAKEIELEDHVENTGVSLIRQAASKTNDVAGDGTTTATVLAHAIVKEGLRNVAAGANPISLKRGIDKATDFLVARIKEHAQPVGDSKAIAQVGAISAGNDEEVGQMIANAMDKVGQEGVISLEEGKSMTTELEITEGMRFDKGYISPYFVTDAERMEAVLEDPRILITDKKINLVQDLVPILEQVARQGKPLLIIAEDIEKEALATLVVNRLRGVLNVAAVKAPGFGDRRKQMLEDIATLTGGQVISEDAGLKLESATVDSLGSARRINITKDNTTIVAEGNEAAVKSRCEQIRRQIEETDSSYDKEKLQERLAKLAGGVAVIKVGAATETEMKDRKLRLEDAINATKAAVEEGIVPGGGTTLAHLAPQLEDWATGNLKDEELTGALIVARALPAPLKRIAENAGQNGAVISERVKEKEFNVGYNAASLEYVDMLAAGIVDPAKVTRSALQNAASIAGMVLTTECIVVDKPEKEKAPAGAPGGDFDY

Variants of: B1
Conditions: with rs3_syny3 rpsC

| Variant | effect of a mutation on the interaction |
| --- | --- |
| C35S | increasing interaction |

Variants of: B2
Conditions: with glga2_syny3 glgA2, P72623

| Variant | effect of a mutation on the interaction |
| --- | --- |
| C35S | increasing interaction |

Variants of: B3
Conditions: with sat_syny3 sat

| Variant | effect of a mutation on the interaction |
| --- | --- |
| C35S | increasing interaction |

Variants of: B4
Conditions: with prx5_syny3 prx5, P73728

| Variant | effect of a mutation on the interaction |
| --- | --- |
| C35S | increasing interaction |

Variants of: B5
Conditions: with assy_syny3 argG

| Variant | effect of a mutation on the interaction |
| --- | --- |
| C35S | increasing interaction |

Variants of: B6
Conditions: with syv_syny3 valS

| Variant | effect of a mutation on the interaction |
| --- | --- |
| C35S | increasing interaction |

Variants of: B7
Conditions: with glgb_syny3 glgB

| Variant | effect of a mutation on the interaction |
| --- | --- |
| C35S | increasing interaction |

Variants of: B8
Conditions: with ccmm_syny3 ccmM

| Variant | effect of a mutation on the interaction |
| --- | --- |
| C35S | increasing interaction |

Variants of: B9
Conditions: with pyc1_syny3 apcC

| Variant | effect of a mutation on the interaction |
| --- | --- |
| C35S | increasing interaction |

Variants of: B10
Conditions: with ch601_syny3 groEL1, Q05972

| Variant | effect of a mutation on the interaction |
| --- | --- |
| C35S | increasing interaction |
